Measured values from patent publication US20260250418A1 (BIOCYTOGEN PHARMACEUTICALS BEIJING, published 2026).
Changes are numbered by the printed parent chain.

T1: human HER4 (hHER4, ACRO Biosystems Inc., Cat #: ER4-H5221), recombinant His-tagged (human, UniProt Q15303 26-649)
T1 construct: Bought protein; not shown: His tag
T1 sequence (looked up): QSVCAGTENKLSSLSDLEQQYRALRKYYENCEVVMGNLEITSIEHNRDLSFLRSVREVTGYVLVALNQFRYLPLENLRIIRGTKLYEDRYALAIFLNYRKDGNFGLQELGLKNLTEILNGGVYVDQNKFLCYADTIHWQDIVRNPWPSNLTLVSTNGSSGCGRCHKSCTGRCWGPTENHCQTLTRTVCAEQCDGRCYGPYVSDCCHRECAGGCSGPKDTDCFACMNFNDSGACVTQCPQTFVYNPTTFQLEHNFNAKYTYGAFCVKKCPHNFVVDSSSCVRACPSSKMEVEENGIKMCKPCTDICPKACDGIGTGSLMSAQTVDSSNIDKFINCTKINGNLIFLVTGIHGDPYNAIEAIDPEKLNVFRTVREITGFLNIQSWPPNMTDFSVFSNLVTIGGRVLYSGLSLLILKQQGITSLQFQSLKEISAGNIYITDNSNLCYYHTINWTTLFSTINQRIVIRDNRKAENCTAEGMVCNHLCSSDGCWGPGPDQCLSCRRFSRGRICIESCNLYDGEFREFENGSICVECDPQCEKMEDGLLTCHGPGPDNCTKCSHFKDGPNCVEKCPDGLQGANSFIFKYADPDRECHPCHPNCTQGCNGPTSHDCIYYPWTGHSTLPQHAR

T2: His-tagged dog HER3 protein (dHER3, SEQ ID NO: 45) (dog, UniProt P21860 20-642 (human entry))
T2 construct: not shown: His tag
T2 chain: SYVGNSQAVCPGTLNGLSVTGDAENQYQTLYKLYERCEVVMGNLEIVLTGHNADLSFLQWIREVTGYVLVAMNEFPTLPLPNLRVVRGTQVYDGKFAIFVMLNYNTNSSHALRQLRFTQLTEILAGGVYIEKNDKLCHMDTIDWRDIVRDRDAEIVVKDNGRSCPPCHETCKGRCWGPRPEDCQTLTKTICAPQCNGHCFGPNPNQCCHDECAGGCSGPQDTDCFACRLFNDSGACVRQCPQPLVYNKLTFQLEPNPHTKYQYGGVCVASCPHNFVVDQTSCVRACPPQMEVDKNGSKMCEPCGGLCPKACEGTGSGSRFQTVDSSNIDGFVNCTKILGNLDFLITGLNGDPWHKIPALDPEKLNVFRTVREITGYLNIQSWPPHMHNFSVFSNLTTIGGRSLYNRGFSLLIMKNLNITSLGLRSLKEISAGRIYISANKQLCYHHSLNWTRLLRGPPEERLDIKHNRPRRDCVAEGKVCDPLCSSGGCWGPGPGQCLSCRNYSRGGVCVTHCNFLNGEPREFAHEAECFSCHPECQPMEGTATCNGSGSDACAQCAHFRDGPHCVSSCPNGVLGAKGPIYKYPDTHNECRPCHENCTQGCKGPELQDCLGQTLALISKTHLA

B1: anti-HER3 antibody 3G6 (antibody, V domains shown)
VH: QVQLVQSGPVLVKPTETLTLTCTVSGFSLSNIRMGVSWIRQPPGKALEWLAHIFSNDDKSYSTSLKSRLTISKDTSKSQVVLTMTNVDPVDTATYYCTRMRYSGGPFDYWGQGTLVTVSS
VL: not shown
notes: common light chain
B2: anti-HER3 antibody 3E1 (antibody, V domains shown)
VH: B1 VH with Q1E, V12A, T63P, S67N, N86T, V87M, V90M, R101K
VL: not shown
notes: common light chain
B3: anti-HER3 antibody 1B2 (antibody, V domains shown)
VH: B1 VH with G26T, I32A, T63P, S78T, V87M, T98S, T114S
VL: not shown
notes: common light chain
B4: anti-HER3 antibody 1C5 (antibody, V domains shown)
VH: QVQLVESGGGVVQPGKSLRLSCAASGFTFSRSGMHWVRQAPGKGLEWVALISFDGSNKYYADSVKGRFTISRDNSKNTLNLQMNSLRAEDTAVYYCAKGGFGVVIYDAFDIWGHGTMVTVSS
VL: not shown
notes: common light chain

Target: T3, human EGFR (hEGFR, ACRO Biosystems Inc., Cat #: EGR-H5222), recombinant His-tagged (human, UniProt P00533 25-645)
T3 construct: Bought protein; not shown: His tag
Test: SPR, Ab captured on Protein A
Protocol: (§1) The cross binding activities of anti-HER3 antibodies to HER family proteins were determined by surface plasmon resonance (SPR) using Biacore (Biacore, INC, Piscataway N.J.) 8K biosensor equipped with pre-immobilized Protein A sensor chips.
(§2) Purified anti-HER3 antibodies were diluted to 2 μg/mL and then injected into the Biacore 8K biosensor at 10 μL/min for about 50 seconds to achieve a desired protein density (e.g., about 200 response units (RU)). […] The association phase lasted for 180 s and the dissociation phase lasted 400 s followed by a regeneration step with Glycine (pH 2.0, 30 μL/min for 30 seconds). For isotype control (ISO), an antibody targeting an irrelevant target protein was used.

binding result	Binder
no binding (tested: 400 nM)	B1
no binding (tested: 400 nM)	B2
no binding (tested: 400 nM)	B3
no binding (tested: 400 nM)	B4

Target: T4, human HER2 (hHER2, ACRO Biosystems Inc., Cat #: HE2-H5225), recombinant His-tagged (human, UniProt P04626 23-652)
T4 construct: Bought protein; not shown: His tag
Test: SPR, Ab captured on Protein A
Protocol: as §1, §2

binding result	Binder
no binding (tested: 400 nM)	B1
no binding (tested: 400 nM)	B2
no binding (tested: 400 nM)	B3
no binding (tested: 400 nM)	B4

Target: T1, human HER4 (hHER4, ACRO Biosystems …)
Test: SPR, Ab captured on Protein A
Protocol: as §1, §2

binding result	Binder
no binding (tested: 400 nM)	B1
no binding (tested: 400 nM)	B2
no binding (tested: 400 nM)	B3
no binding (tested: 400 nM)	B4

Target: T5, human HER3 on CHO-hHER3 cells (human, UniProt P21860 20-643)
T5 construct: CHO-S cells transfected with hHER3
Test: flow cytometry, transfected CHO cells
Protocol: CHO-hHER3 cells, CHO-mHER3 cells, CHO-fasHER3 cells or CHO-dHER3 cells were transferred to a 96-well plate at a density of 5×10⁴ cells/well respectively. The anti-HER3 antibodies were added to the 96-well plate, and incubated at 4° C. for 30 min.

Percentage of Positive Cells	Binder
66.5%	B1
70.6%	B2
71.3%	B3
74%	B4

Target: T2, His-tagged dog HER3 protein (dHER3, SEQ …)
Test: SPR, Ab captured on Protein A
Protocol: (§3) Purified anti-HER3 antibodies was captured on the Protein A chip (Series S Sensor Chip Protein A) for the detection. […] For ISO control, an antibody targeting an irrelevant target protein was used. The flow rate was 30 μL/min, the binding and dissociation time were set to 180 s and 400 s, respectively. The chip was regenerated after the last injection of each titration with a glycine solution (pH 2.0) at 30 μL/min for 30 seconds.
(§4) As a person of ordinary skill in the art would understand, the same method with appropriate adjustments for parameters (e.g., antibody concentration) was performed for each tested antibody.

Kd	koff	kon	Binder
146 nM	0.00809 s⁻¹	55500 M⁻¹ s⁻¹	B1
50.4 nM	0.00288 s⁻¹	57100 M⁻¹ s⁻¹	B2
61.8 nM	0.00223 s⁻¹	36100 M⁻¹ s⁻¹	B3
33.4 nM	0.000418 s⁻¹	12500 M⁻¹ s⁻¹	B4

Target: T6, His-tagged human HER3 protein (hHER3, ACRO Biosystems Inc., Cat #: ER3-H5223) (human, UniProt P21860 20-643)
T6 construct: Bought protein; also called hHER3-His; not shown: His tag
Test: SPR, Ab captured on Protein A
Protocol: as §3, §4

Kd	koff	kon	Binder
34.8 nM	0.0091 s⁻¹	261000 M⁻¹ s⁻¹	B1
11.5 nM	0.00319 s⁻¹	277000 M⁻¹ s⁻¹	B2
13.3 nM	0.00239 s⁻¹	179000 M⁻¹ s⁻¹	B3
30 nM	0.000637 s⁻¹	21200 M⁻¹ s⁻¹	B4

Target: T7, His-tagged monkey HER3 protein (fasHER3, Sino Biological, Inc., Cat #: 90043-K08H) (monkey)
T7 construct: Bought protein
Test: SPR, Ab captured on Protein A
Protocol: as §3, §4

Kd	koff	kon	Binder
50.9 nM	0.00834 s⁻¹	164000 M⁻¹ s⁻¹	B1
19.1 nM	0.00289 s⁻¹	152000 M⁻¹ s⁻¹	B2
22.3 nM	0.00224 s⁻¹	100000 M⁻¹ s⁻¹	B3
31.7 nM	0.000582 s⁻¹	18400 M⁻¹ s⁻¹	B4
